The subject of this experiment is male C57BL/6J mice on CDHFD (liver fibrosis). Briefly: Choline-deficient high fat diet (CDHFD) model of mouse NASH, liver hydroxyproline content. It is filed as in vivo. The settings on record: 15 mg/kg twice a week i.p., weeks 4 through 12 of CDHFD. An excerpt:
The Choline deficient high fat diet (CDHFD) is an established diet-induced model of Non-Alcoholic steatohepatitis (NASH). In this model, male C57BL/6J mice are fed a choline deficient, 0.10% Methionine, high fat diet for 12 weeks. Three to six weeks after the start of the CDHFD, activation of pro-fibrotic processes can be detected through increased expression of α-smooth muscle actin (α-SMA) protein, a marker for activation of hepatic stellate cells, and elevated tissue hydroxyproline content reflecting increased collagen synthesis and deposition (Matsumoto et. al, Int J Exp Pathol. 2013 April; 94(2):93-103).
LTBP complex-specific antibodies were tested for their ability to inhibit and/or reduce the extent of liver fibrosis in mice in the CDHFD model as follows. An outline of the study is shown below in Table 21.
Animals in the test cohorts were on the CDHFD for the duration of the study. A separate cohort of mice (Group 1) were administered a regular chow diet as a study control. Antibodies SR-AB42 and SR-AB31 were administered to mice by intraperitoneal (i.p.) injection beginning at 4 weeks post start of the CDHFD. Animals were dosed at antibody test concentrations 15 mg/kg twice a week (i.e., 30 mg/kg/week) for a test duration of 8 weeks (i.e., weeks 4 through 12). […] Endpoint readout was hydroxyproline content. […]

B1: SR-AB42: cycle 3 antibody, lineage SR-AB23; CDRs SEQ ID NO: 166-171; HCVR SEQ ID NO: 318, LCVR SEQ ID NO: 319 (antibody, V domains shown)
VH: QVQLVESGGGVVQPGRSLRLSCAASGFTFRSYVMHWVRQAPGKGLEWVAVISHEGSLKYYADSVKGRFTISRDNSKNTLYLQMNSLRAEDTAVYYCARPRIAARRGGFGYWGQGTLVTVSS
VL: NFMLTQPHSVSESPGKTVTISCTRSSGNIDNNYVQWYQQRPGSSPTTVIYEDNQRPSGVPDRFSGSIDSSSNSASLTISGLKTEDEADYYCQSYDYDTQGVVFGGGTKLTVL
For B1, the “Hydroxyproline (HYP) in liver tissue” value is “inhibited the increase in HYP”.

(Values after patent US11214614B2, “LTBP complex-specific inhibitors of TGFβ and uses thereof” (Scholar Rock, Inc., priority 2019, dated 2022).)
